The values that follow are results of earlier work, collected in patent US10544449B2, “Bis-biotinylation tags” (Pacific Biosciences of California, Inc., priority 2013, dated 2020).

The conditions of series [1]: cited from earlier work.
For series [2] the following is noted: compared with streptavidin; cited from earlier work.

On to streptavidin, for which the “accumulation in kidney, share of injected dose” value in series [1] (injected streptavidin) is 15-20%. Also, the “time remaining in the kidneys” value in series [1] (mice, rats, and rabbits) was 3 to 4 days.
traptavidin: the slower biotin off-rate in series [2] is listed as roughly 10 fold.
